We go through 2 substances from US20140193430A1.

Experiment [1] deals with recombinant KIR2DL1 protein (entire extracellular domain, produced in E. coli, refolded) (human) (UniProt P43626). The experiment can be described thus: BIAcore competition on KIR2DL1 chip; first Ab EB6, second Ab (competitor) 1-4F1.
The target is the same in experiment [2]. The experiment is described as follows: BIAcore, second Ab on KIR2DL1 chip with first Ab (competitor) 1-7F9 bound.
For experiment [3] the target is unchanged. The experiment can be described thus: BIAcore competition on KIR2DL1 chip; first Ab EB6, second Ab (competitor) EB6. On the technique in general: SPR reads the build-up and loss of mass on a sensor chip optically.
Experiment [4] shares this target. The experiment can be described thus: BIAcore, direct binding of second Ab to KIR2DL1 chip (field of first Ab 1-7F9).
Experiment [5] has the same target. The experiment can be described thus: BIAcore, direct binding of second Ab to KIR2DL1 chip (field of first Ab EB6).
The target is the same in experiment [6]. The experiment is described as follows: BIAcore competition on KIR2DL1 chip; first Ab EB6, second Ab (competitor) 1-7F9.
Experiment [7] has the same target. The experiment can be described thus: BIAcore, second Ab on KIR2DL1 chip with first Ab (competitor) 1-6F1 bound.
Experiment [8] shares this target. The experiment can be described thus: BIAcore competition on KIR2DL1 chip; first Ab EB6, second Ab (competitor) DF200.
Experiment [9] has the same target. The experiment can be described thus: BIAcore, second Ab on KIR2DL1 chip with first Ab (competitor) EB6 bound.
For experiment [10] the target is unchanged. The experiment is described as follows: BIAcore competition on KIR2DL1 chip; first Ab EB6, second Ab (competitor) 1-6F1.
For experiment [11] the target is unchanged. The experiment is described as follows: BIAcore, direct binding of second Ab to KIR2DL1 chip (field of first Ab 1-6F1).
Experiment [12] shares this target. The experiment can be described thus: BIAcore competition on KIR2DL1 chip; first Ab EB6, second Ab (competitor) Pan2D.
For experiment [13], the target named is recombinant KIR2DL3 protein (entire extracellular domain, produced in E. coli, refolded) (human) (UniProt P43628). The experiment is described as follows: BIAcore, second Ab on KIR2DL3 chip with first Ab (competitor) 1-6F1 bound.
Experiment [14] has the same target. The experiment can be described thus: BIAcore, direct binding of second Ab to KIR2DL3 chip (field of first Ab 1-6F5).
Experiment [15] has as its target recombinant KIR2DL1 protein (entire extracellular domain, produced in E. coli, refolded) (human) (UniProt P43626). The experiment can be described thus: BIAcore, second Ab on KIR2DL1 chip with first Ab (competitor) 1-6F5 bound.
Experiment [16] shares this target. The experiment can be described thus: BIAcore competition on KIR2DL1 chip; first Ab Pan2D, second Ab (competitor) 1-7F9.
For experiment [17] the target is unchanged. The experiment can be described thus: BIAcore competition on KIR2DL1 chip; first Ab Pan2D, second Ab (competitor) EB6.
For experiment [18], the target named is immobilized KIR2DS1 (UniProt Q14954). The experiment can be described thus: BIAcore competition on KIR2DS1 chip; first Ab Pan2D, second Ab (competitor) 1-4F1.
Experiment [19] has as its target recombinant KIR2DL3 protein (entire extracellular domain, produced in E. coli, refolded) (human) (UniProt P43628). The experiment is described as follows: BIAcore competition on KIR2DL3 chip; first Ab Pan2D, second Ab (competitor) 1-6F5.
For experiment [20] the target is unchanged. The experiment can be described thus: BIAcore, second Ab on KIR2DL3 chip with first Ab (competitor) 1-4F1 bound.
Experiment [21] deals with recombinant KIR2DL1 protein (entire extracellular domain, produced in E. coli, refolded) (human) (UniProt P43626). The experiment can be described thus: BIAcore competition on KIR2DL1 chip; first Ab Pan2D, second Ab (competitor) 1-6F1.
The target is the same in experiment [22]. The experiment can be described thus: BIAcore competition on KIR2DL1 chip; first Ab Pan2D, second Ab (competitor) DF200.
In experiment [23] the target is recombinant KIR2DL3 protein (entire extracellular domain, produced in E. coli, refolded) (human) (UniProt P43628). The experiment can be described thus: BIAcore competition on KIR2DL3 chip; first Ab Pan2D, second Ab (competitor) 1-7F9.
Experiment [24] has the same target. The experiment is described as follows: BIAcore, direct binding of second Ab to KIR2DL3 chip (field of first Ab 1-6F1).
Experiment [25] deals with immobilized KIR2DS1 (UniProt Q14954). The experiment is described as follows: BIAcore, direct binding of second Ab to KIR2DS1 chip (field of first Ab 1-7F9).
Experiment [26] addresses recombinant KIR2DL3 protein (entire extracellular domain, produced in E. coli, refolded) (human) (UniProt P43628). The experiment is described as follows: BIAcore, direct binding of second Ab to KIR2DL3 chip (field of first Ab 1-4F1).
Experiment [27] has as its target recombinant KIR2DL1 protein (entire extracellular domain, produced in E. coli, refolded) (human) (UniProt P43626). The experiment is described as follows: BIAcore competition on KIR2DL1 chip; first Ab Pan2D, second Ab (competitor) 1-6F5.
In experiment [28] the target is recombinant KIR2DL3 protein (entire extracellular domain, produced in E. coli, refolded) (human) (UniProt P43628). The experiment can be described thus: BIAcore competition on KIR2DL3 chip; first Ab Pan2D, second Ab (competitor) 1-4F1.
Experiment [29] has the same target. The experiment can be described thus: BIAcore competition on KIR2DL3 chip; first Ab Pan2D, second Ab (competitor) DF200.
For experiment [30] the target is unchanged. The experiment can be described thus: BIAcore competition on KIR2DL3 chip; first Ab Pan2D, second Ab (competitor) 1-6F1.
Experiment [31] deals with immobilized KIR2DS1 (UniProt Q14954). The experiment is described as follows: BIAcore, second Ab on KIR2DS1 chip with first Ab (competitor) 1-7F9 bound.
In experiment [32] the target is recombinant KIR2DL3 protein (entire extracellular domain, produced in E. coli, refolded) (human) (UniProt P43628). The experiment is described as follows: BIAcore, second Ab on KIR2DL3 chip with first Ab (competitor) 1-6F5 bound.
Experiment [33] deals with recombinant KIR2DL1 protein (entire extracellular domain, produced in E. coli, refolded) (human) (UniProt P43626). The experiment can be described thus: BIAcore competition on KIR2DL1 chip; first Ab Pan2D, second Ab (competitor) 1-4F1.
Experiment [34] has as its target immobilized KIR2DS1 (UniProt Q14954). The experiment can be described thus: BIAcore competition on KIR2DS1 chip; first Ab Pan2D, second Ab (competitor) DF200.
Experiment [35] addresses KIR2DL1(R131W)-hFc (human) (UniProt P43626). The experiment can be described thus: ELISA, KIR2DL1(R131W)-hFc captured via goat anti-human antibodies, mAb titrated, peroxidase anti-mouse, A450 [panel pan2D]. On the technique in general: ELISA stands for enzyme-linked immunosorbent assay.
The target of experiment [36] is recombinant KIR2DL3 protein (entire extracellular domain, produced in E. coli, refolded) (human) (UniProt P43628). The experiment can be described thus: BIAcore, second Ab on KIR2DL3 chip with first Ab (competitor) 1-7F9 bound.
The target of experiment [37] is recombinant KIR2DL1 protein (entire extracellular domain, produced in E. coli, refolded) (human) (UniProt P43626). The experiment can be described thus: BIAcore, direct binding of second Ab to KIR2DL1 chip (field of first Ab 1-6F5).
In experiment [38] the target is immobilized KIR2DS1 (UniProt Q14954). The experiment is described as follows: BIAcore competition on KIR2DS1 chip; first Ab Pan2D, second Ab (competitor) 1-7F9.
In experiment [39] the target is recombinant KIR2DL3 protein (entire extracellular domain, produced in E. coli, refolded) (human) (UniProt P43628). The experiment can be described thus: BIAcore, direct binding of second Ab to KIR2DL3 chip (field of first Ab 1-7F9).
Experiment [40] shares this target. The experiment is described as follows: BIAcore competition on KIR2DL3 chip; first Ab Pan2D, second Ab (competitor) gl183.

Consider EB6 (IgG1 anti KIR2DL1) (antibody), for which the % inhibition of second Ab binding by first Ab in experiment [1] turned out to be 48%; in experiment [3], 57%; in experiment [6], 65%; in experiment [8] it was 60%; in experiment [10] it was 23%; in [12], 40%. For the same substance, the results for the RU, binding with first Ab present (RU2) in [2], in experiment [7] and in [9] were 180 RU, 320 RU and 200 RU, respectively. The RU, direct binding (RU1) amounted to 460 RU in experiment [4], 460 RU in experiment [5] and 260 RU in [11].

For monoclonal antibody NKVSF1, the RU, binding with first Ab present (RU2) in [13] was found to be 1090 RU; in [15] it was 440 RU; in experiment [20], 890 RU; in [2], 534 RU; in [7], 440 RU; with immobilized KIR2DS1 [31], 1200 RU. For the same substance, the RU, binding with first Ab present (RU2) in experiment [32] was found to be 950 RU; in experiment [36], 830 RU. The RU, direct binding (RU1) in experiment [14] amounted to 990 RU; in [24] it was 990 RU; in the experiment with immobilized KIR2DS1 [25] it was 1350 RU; in experiment [4] it was 545 RU; in experiment [26], 2400 RU; in experiment [37], 475 RU. The results for the RU, direct binding (RU1) in experiment [11] and in experiment [39] were 475 RU and 870 RU, respectively. The % inhibition of second Ab binding by first Ab is 2% in experiment [16]; 90% in experiment [17]; 100% with immobilized KIR2DS1 [18]; 18% in experiment [19]; 12% in [21]; 90% in experiment [22]. Further, the % inhibition of second Ab binding by first Ab stood at 15% in experiment [23]; 13% in experiment [27]; 68% in experiment [28]; 95% in experiment [29]; 8% in experiment [30]; 95% in [33]. Also, the values for the % inhibition of second Ab binding by first Ab (with immobilized KIR2DS1 [34]; with immobilized KIR2DS1 [38]; in experiment [40]) were 100%, 45% and 85%, respectively. In addition, the EC50 (read off the curve) (commonly the midpoint of the concentration-response curve) in [35] was 20 nM.
